Data taken from the DeepSol protein solubility set.

Assay: soluble on expression in E. coli; label from the status in PepcDB or PDB records

Soluble on expression in E. coli, soluble:
STSCVAEEPIKKIAIFGGTHGNELTGVFLVTHWLKNGAEVHRAGLEVKPFITNPRAVEKCTRYIDCDLNRVFDLENLSKEMSEDLPYEVRRAQEINHLFGPKNSDDAYDVVFDLHNTTSNMGCTLILGDSGNDFLIQMFHYIKTCMAPLPCSVYLIEHPSLKYATTRSIAKYPVGIEVGPQPHGVLRADILDQMRRMLKHALDFIQRFNEGKEFPPCAIDVYKIMEKVDYPRNESGDVAAVIHPNLQDQDWKPLHPGDPVFVSLDGKVIPLGGDCTVYPVFVNEAAYYEKKEAFAKTTKLTLNAKSIRSTLH
MGSSHHHHHHSSGLVPRGSEELQNKLEDVVIDRNLLILGKILGEGEFGSVMEGNLKQEDGTSLKVAVKTMKLDNSSQREIEEFLSEAACMKDFSHPNVIRLLGVCIEMSSQGIPKPMVILPFMKYGDLHTYLLYSRLETGPKHIPLQTLLKFMVDIALGMEYLSNRNFLHRDLAARNCMLRDDMTVCVADFGLSKKIYSGDYYRQGRIAKMPVKWIAIESLADRVYTSKSDVWAFGVTMWEIATRGMTPYPGVQNHEMYDYLLHGHRLKQPEDCLDELYEIMYSCWRTDPLDRPTFSVLRLQLEKLLESLPDV
MRVFVVGGTGFVGQEVVRLLLARGHTPLVLARRSRPLPEGAVLVEGDIAREVPDLEGVEAAIYLAGIIRERGQTFRAVHVEGVRNLLRAMERAGVGRLLHMSALGARPEAPSRYHRTKAEGEALVRQSGLSHAIFRPSLIFGPGDEFFGRVLRGLVCAPLPFVPLIGDGGFPFRPVYVGDVAEAFVGALERGLEGTYDLVGPKEYSFRELLQLVMEVLGRRKPFLSLPLWLMDRLVPLLSPLPISPLTLDQYLMLKEGNTAPFPEALKELLPAPQALEEVLPRYLRC
GHMRRELAIEFSRVTESAALAGYKWLGRGDKNTADGAAVNAMRIMLNQVNIDGTIVIGEGEIDEAPMLYIGEKVGTGRGDAVDIAVDPIEGTRMTAMGQANALAVLAVGDKGCFLNAPDMYMEKLIVGPGAKGTIDLNLPLADNLRNVAAALGKPLSELTVTILAKPRHDAVIAEMQQLGVRVFAIPDGDVAASILTCMPDSEVDVLYGIGGAPEGVVSAAVIRALDGDMNGRLLARHDVKGDNEENRRIGEQELARCKAMGIEAGKVLRLGDMARSDNVIFSATGITKGDLLEGISRKGNIATTETLLIRGKSRTIRRIQSIHYLDRKDPEMQVHIL
GSGSRMKTVDKSKTLTKFEEFFSLQDYKDRVFEAIEKYPNVRSIEVDYLDLEMFDPDLADLLIEKPDDVIRAAQQAIRNIDRLRKNVDLNIRFSGISNVIPLRELRSKFIGKFVAVDGIVRKTDEIRPRIVKAVFECRGCMRHHAVTQSTNMITEPSLCSECGGRSFRLLQDESEFLDTQTLKLQEPLENLSGGEQPRQITVVLEDDLVDTLTPGDIVRVTGTLRTVRDERTKRFKNFIYGNYTEFLEQEFEELQISEEDEEKIKELAGDPNIYEKIIR

Soluble on expression in E. coli, not soluble:
MPWWEQNIGMGGGALSAKQQTSADSRTESLQSLSDERRDFIQKSLDAWCANLGYKDSTVNMLTLSRTLCISKDELSVFFDQYLKTTFRIWLGDIRFNAAKKMMLEFPDYSNDIISAECGFSARTYLYRIFKSKEGCTPTEWREEQVANAAPDDKKQD
MGSDKIHHHHHHMEKGSIKILGEGFISSGEYENIKIVGSSKSKGNVKSNEVKVLGDAKFEGDINIKNFVVNGKTIIRGNLKAERVRVNGQLNIEGDAEIDDLVITAQQKVDGKLKCNNVTIRGQLSVNENMYAQDIKIYGEMRNKSNIECEDIKVYGVIKCDGLLNGENIYVYSGGGSYCKEIGATNIKIGRSKDAFSLIKIINIFSGKFKCNLIEGDTIELEDASIKDIRGKSISLVDNCDVGNIEYSDNLSVSDNSTVKNSIKVG
DTTGSTPAPIDENGTVLALLPEFEHNPNAMFVLWKDHTSVAKADRINELAHSGKFTDYTRYVGGVYSSEWFWAKAAWVSEQDEQVAKRAFSWVELCDWIPAILADTQHPQKLRRGICAAGHKAMWHESWGGLPEQAFLSAISPTLDGIRDRMFTEVFTSDQAAGYLSKAWAIKLGLPEGIAIAIGEFDCHMGAVGAGAGANDLVKVIGTSTCDILMVESQNVGDRTIHGICGQVEGSAMPELLALEAGQSAFGDMYAWFKNVLMWPLQAYAEHNPDFALTAEEIASELLPMLSQAAEQQGIDQYTPVAMDWLNGRRTPYANQRLKGAICDLNLGSSSPAIFSALVESTAHGAKAIVDCFIEQDVTVERVIAIGGIAQKSPYVMQMCADVIGRDIIVVESDQ
MYKEDTIAAISTPHGAGGVGIIRISGDKAFEIAERIFRGKKDFKLIRSHTINYGKIVNPENGAVLDEVLLSKMEKPKTFTREDVVEINCHGGMVVLKNILELCIKEGARLAEPGEFTKRAFLNGRIDLSQAEAVIDLINSKTNESSKAAISQLEGKLSRKIKDARSKLIELLAHIEVTVDYPEHDIEEITGNMVYEEIGKIKEKLCDIVKSFERGRIIREGIDAVIIGKPNVGKSSLLNELSGKSKAIVTDIPGTTRDIIEEYININGIPLRIIDTAGIRETEDVVEKIGVEKTHRAIDEADLVIMMIDAKRGMDEDDNRILTMLGDKKLIILINKIDLVDEKQINEIESLLKGRKCIRTSVKEGTGISELENAITELFVQGEVSVNEEILLTNIRHKNLIDMAISSIEKAMESIDGSMPLDLVSIDITDAADYLGQITGESVSEDVMHEIFSKFCLGK
MQDDPSTSPLTHSATLRRLLYEALDALGLDPTRVYRSVYRRIPLPPPTLGGRLVHDNAPLFWTELAAVTGDADIGLHLGEAMKPRLLDVVGYLLLSARDLEEALRSFVRFQHILSGGFAARLEVEGETARLILDINYLGYASLRQQIECLMLLFLKLLALISDDEFVAERIEFRHRAPPRLGEHRRLFGRLPLFSRPHDALVFSAALLRRPSRNANPDMHDVLTRHAEEQSRELSENRLLNRVRYLIELRLGEGYGLRQCAAELGLGSGALQRALAAGGASFRQVRDEVRRQRASEMLLAGRAIREVAKACGFAELSPFYRAFRRWHAAPPEQYRARLAKREEGYSTSGT
MDEEYDAIVLGTGLKECIISGMLSVSGKKVLHIDRNNYYGGESASLTPLEQLYEKFHGPQAKPQQEMGRGRDWNVDLIPKFLMANGPLVKLLIHTGVTRYLEFKSIEASFVVKGGKIYKVPADEMEALATSLMGMFEKRRFKKFLVWVQQFDENKEDTWQGLDPHNSTMQQVYEKFGLDENTADFTGHALALYRDDEHKNQPYAPAVEKIRLYSDSLARYGKSPYLYPLYGLGELPQGFARLSAIYGGTYMLDKPVDEIVMENGKAIGVKCGDEIVRGKQIYCDPSYAKDRVKKTGQVVRAICLLNHPIPNTNDAQSCQIIIPQKQVGRHYDIYISCCSNTNMVTPKGWYLAMVSTTVETANPEAEVLPGLQLLGAIAEKFIQISDVYEPSDLGSESQIFISQSYDATTHFETTCKDVLNMFERGTTKEFDFTNITHLSLNDQE
MGSDKIHHHHHHMNKEHICFDFDSNPAFQTIDYEVAARSFVPGYESIFNMAVALLDASVPEPAHLLIVAAGGGMELITFGQARSHWLFTGVDPSAKMLAIAQEKVAKQGLTNRVKLHQGLTHELPVTTLYDAATCILAMHFLPDDGAKLLLLQSISQRLKPGAKLILVDLCEEKGSERFNDFLKAYKYHARNLGMSPEIVEETASKVVHIHCISEERTIELLQEANFSKITRFFTALWFRGWIATKNT
MGKNDQYYAVARGKQVGIYRTWNECKTQIDGFQNARFKKFATEAEARKFVADNMSVPGSKPVTPAVSTSSATRKRTHEGTKFTEAKKMKTEEEVIDPEFANAPVVYTDGACSSNGTKNAKAGWGVYWGDDSEDNEFGPVYGAPTNNRGELIAVQKAIEKAIEKRLPKVVIKTDSNLLVQSMNIWIHGWKRKGWKTSTGSEVLNQDVLMKIDNLRQKLKVKFLHVRGHAGIDGNEKADELARKGAQMFIKRS
MEPDLKNVKNAGTGESNKDEIKNTNASRRSGRKVKTIIEEDPNINKKMELPPTLMPKFPSQKIIKQQKSPDKNEPPPARPVEQTEENEENNADEKEKHEIFWQEGVIEECQGREDEGEVPKEQEEHAHVSPDPTSLNDKKSKFEKPNLEPGKPEKPEKLDKPLAKPLPPPSAAPPPVAPLSAPVPSTGAPPSAVPPADKKMSKQSTRDKKSGRSTDRNIHKKKDVAALDENKKSPEDKKKDAGTKKGSTEDASTDNLNNGKVQSRRKSKRQKKSIFQQPVQRTPGSHPSAYLQPTRARTERSLKLPPAEPKSVDERPRKPSTQILQPQQPNRGGQVQKQPSKVVLQPGAPGATPVASTPNQREQAQQQQQQQQKGPMGLFKKIYRKMNFRAASDCTVEPTKEMLAKSYVRPEHNSNDPIDFCPDLPKKLFDEEAWKLRMTNKGANRNEVFLNNRPFWLTRDGTEQIPKVRIQLHRPLKQMHSGNPASIQLKLQRTDPFLDPKEDTLERLKIVDKAIGVDPLDLTKDRELKRVCANTFHGTLMFEVDKRQYDTQQKKAEAEALKLDPKRKNDGKEKDQKSSFEDPKKVAFNVSDKCTLHVYFRKHRPLTNQGKSERFTEKKYTMGERKIMKKGEKPAVPQLVPPTSSSTTSASSSSCRETKKL
MQTIKNSLGQSHDYIKMFVKEGDTVVDATCGNGNDTAFLASLVGENGRVFGFDIQDKAIANTTKKLTDLNLIDRVTLIKDGHQNMDKYIDCPVKAVMFNLGYLPSGDHSISTRPETTIQALSKAMELLVTGGIITVVIYYGGDTGFEEKEKVLEFLKGVDQKKFIVQRTDFINQANCPPILVCIEKISLEHHHHHH
MSIKIDLNKCVGCQKCINICPGSLIDKNNDGKAYIKYPKDCWGCTACLKECKFKAIKYFLGADIGGNGSYMYVSEKGEELEWHMINEDGKEKIITTSRKESNKYLEHHHHHH
MKEFWVWVEPFDRKIVSVALEAGANAVVIPEKGRVEEVKKVGRITVIAPDGDLKLGEDVVYVLIKGKEDEERAAKYPPNVKVIVETTDWTVIPLENLIAQREELYAVVKNAQEAEVALQTLEKGVKGVVLKSRDINEIKKVGQIVSEHEEKLELVTIKITKILPLGLGDRVCVDTISLLHRGEGMLVGNSSGGMFLVHAETEENPYVAARPFRVNAGAVHMYIRVPNNRTKYLCELKAGDKVMVYDYKGRGRVTYVGRAKVERRPMLLIEGRYENKKLSCILQNAETIRLTKPDGTPISVSELKEGDEVLGYVEEAGRHFGMKVEETIIEK
MNFTEMTSMEPIVTESRTPIPPVTDADRKAAFGNLQGHAIHDSAINYLVLLDQLEWQRSDNTNNFSWSVNSWIGGDTDRIWLKSEGERSNGETEAAEAQLLWGHAVGPWWDLVAGVRQDFRPASARTWAAVGFQGLALYNFESEITGFVSNGGKAALRLGGEYDVLLTNRLILQPSYEVNFYSQDDESRGRGRGLTDTELGLRLRYEIRREFAPYIGVSWNQLYGKTSDMAKREGEKDHQVVFLAGARIWFLEHHHHHH
MSLKDRFDRFIDYFTEDEDSSLPYEKRDEPVFTSVNSSQEPALPMNQPSQSAGTKENNITRLHARQQELANQSQRATDKVIIDVRYPRKYEDATEIVDLLAGNESILIDFQYMTEVQARRCLDYLDGACHVLAGNLKKVASTMYLLTPVNVIVNVEDIRLPDEDQQGEFGFDMKRNRVRLEHHHHHH
MGSDKIHHHHHHMPTMIPAASRAMAVFEVFAREKRELSNSDMARLLSLPESSTSDLLHTLHSLGYLMRTTRTRRFYPTGRLSEIARQIAENDPLTTVAQEAIEQVSARTNESVFFGVLDGTAVKVMAVQASRLPLRYIIEVGYRAALHASALGKGLLGLLPPEEARETLAKSSLRAVTAHTVVDIDTLMAQVAKGRKRGWYEAHEEGSEGVHGLAVTGWLGGQAAGISLAGPAERMKKNHDAYLAALIEVRDALMSEE
